The text below walks through data of US20210388087A1 (Chugai, published 2021).

The chains are these.
B1: H183/L072 VL T97M (antibody, name in Kabat numbering, V domains shown)
VH: QVQLVESGGGLVQPGRSLRLSCAASGFTFSNAWMHWVRQAPGKGLEWVAQIKDKGNAYAAYYAPSVKGRFTISRDDSKNSIYLQMNSLKTEDTAVYYCHYVHYASASTVLPAFGVDAWGQGTTVTVSS
VL: DIVMTQSPLSLPVTPGEPASISCQASQELVHMNRNTYLHWYQQKPGQAPRLLIYKVSNRFPGVPDRFSGSGSGTDFTLKISRVEAEDVGVYYCAQGTSVPFMFGQGTKLEIK
notes: Dual-Ig
B2: H183/L072 VL V27cQ (antibody, name in Kabat numbering, V domains shown)
VH: B1 VH
VL: B1 VL with V30Q, M102T
notes: Dual-Ig
B3: H183/L072 VL V51D (antibody, name in Kabat numbering, V domains shown)
VH: B1 VH
VL: B1 VL with V56D, M102T
notes: Dual-Ig
B4: H183/L072 VL V51M (antibody, name in Kabat numbering, V domains shown)
VH: B1 VH
VL: B1 VL with V56M, M102T
notes: Dual-Ig
B5: H183/L072 VL V51E (antibody, name in Kabat numbering, V domains shown)
VH: B1 VH
VL: B1 VL with V56E, M102T
notes: Dual-Ig
B6: H183/L072 VL V27cP (antibody, name in Kabat numbering, V domains shown)
VH: B1 VH
VL: B1 VL with V30P, M102T
notes: Dual-Ig
B7: H183/L072 VL V27cW (antibody, name in Kabat numbering, V domains shown)
VH: B1 VH
VL: B1 VL with V30W, M102T
notes: Dual-Ig
B8: H183/L072 VL V51T (antibody, name in Kabat numbering, V domains shown)
VH: B1 VH
VL: B1 VL with V56T, M102T
notes: Dual-Ig
B9: H183/L072 VL V51L (antibody, name in Kabat numbering, V domains shown)
VH: B1 VH
VL: B1 VL with V56L, M102T
notes: Dual-Ig
B10: H183/L072 VL V27cG (antibody, name in Kabat numbering, V domains shown)
VH: B1 VH
VL: B1 VL with V30G, M102T
notes: Dual-Ig
B11: H183/L072 VL V51R (antibody, name in Kabat numbering, V domains shown)
VH: B1 VH
VL: B1 VL with V56R, M102T
notes: Dual-Ig
B12: H183/L072 VL V27cM (antibody, name in Kabat numbering, V domains shown)
VH: B1 VH
VL: B1 VL with V30M, M102T
notes: Dual-Ig
B13: H183/L072 VL T97S (antibody, name in Kabat numbering, V domains shown)
VH: B1 VH
VL: B1 VL with M102S
notes: Dual-Ig
B14: H183/L072 VL T97Q (antibody, name in Kabat numbering, V domains shown)
VH: B1 VH
VL: B1 VL with M102Q
notes: Dual-Ig
B15: H183/L072 VL V27cF (antibody, name in Kabat numbering, V domains shown)
VH: B1 VH
VL: B1 VL with V30F, M102T
notes: Dual-Ig
B16: H183/L072 VL V27cE (antibody, name in Kabat numbering, V domains shown)
VH: B1 VH
VL: B1 VL with V30E, M102T
notes: Dual-Ig
B17: H183/L072 VL V27cY (antibody, name in Kabat numbering, V domains shown)
VH: B1 VH
VL: B1 VL with V30Y, M102T
notes: Dual-Ig
B18: H183/L072 VL V51H (antibody, name in Kabat numbering, V domains shown)
VH: B1 VH
VL: B1 VL with V56H, M102T
notes: Dual-Ig
B19: H183/L072 VL V27cT (antibody, name in Kabat numbering, V domains shown)
VH: B1 VH
VL: B1 VL with V30T, M102T
notes: Dual-Ig
B20: H183/L072 VL T97N (antibody, name in Kabat numbering, V domains shown)
VH: B1 VH
VL: B1 VL with M102N
notes: Dual-Ig
B21: H183/L072 VL V27cI (antibody, name in Kabat numbering, V domains shown)
VH: B1 VH
VL: B1 VL with V30I, M102T
notes: Dual-Ig
B22: H183/L072 VL V27cH (antibody, name in Kabat numbering, V domains shown)
VH: B1 VH
VL: B1 VL with V30H, M102T
notes: Dual-Ig
B23: H183/L072 VL T97W (antibody, name in Kabat numbering, V domains shown)
VH: B1 VH
VL: B1 VL with M102W
notes: Dual-Ig
B24: H183/L072 VL V27cN (antibody, name in Kabat numbering, V domains shown)
VH: B1 VH
VL: B1 VL with V30N, M102T
notes: Dual-Ig
B25: H183/L072 VL V27cD (antibody, name in Kabat numbering, V domains shown)
VH: B1 VH
VL: B1 VL with V30D, M102T
notes: Dual-Ig
B26: H183/L072 VL T97R (antibody, name in Kabat numbering, V domains shown)
VH: B1 VH
VL: B1 VL with M102R
notes: Dual-Ig
B27: H183/L072 VL T97V (antibody, name in Kabat numbering, V domains shown)
VH: B1 VH
VL: B1 VL with M102V
notes: Dual-Ig
B28: H183/L072 VL V27cA (antibody, name in Kabat numbering, V domains shown)
VH: B1 VH
VL: B1 VL with V30A, M102T
notes: Dual-Ig
B29: H183/L072 VL V51G (antibody, name in Kabat numbering, V domains shown)
VH: B1 VH
VL: B1 VL with V56G, M102T
notes: Dual-Ig
B30: H183/L072 VL V51A (antibody, name in Kabat numbering, V domains shown)
VH: B1 VH
VL: B1 VL with V56A, M102T
notes: Dual-Ig
B31: H183/L072 VL V51I (antibody, name in Kabat numbering, V domains shown)
VH: B1 VH
VL: B1 VL with V56I, M102T
notes: Dual-Ig
B32: H183/L072 VL V51P (antibody, name in Kabat numbering, V domains shown)
VH: B1 VH
VL: B1 VL with V56P, M102T
notes: Dual-Ig
B33: H183/L072 VL V51F (antibody, name in Kabat numbering, V domains shown)
VH: B1 VH
VL: B1 VL with V56F, M102T
notes: Dual-Ig
B34: H183/L072 VL V94A (antibody, name in Kabat numbering, V domains shown)
VH: B1 VH
VL: B1 VL with V99A, M102T
notes: Dual-Ig
B35: H183/L072 VL V27cL (antibody, name in Kabat numbering, V domains shown)
VH: B1 VH
VL: B1 VL with V30L, M102T
notes: Dual-Ig
B36: H183/L072 VL V51W (antibody, name in Kabat numbering, V domains shown)
VH: B1 VH
VL: B1 VL with V56W, M102T
notes: Dual-Ig
B37: H183/L072 VL V51N (antibody, name in Kabat numbering, V domains shown)
VH: B1 VH
VL: B1 VL with V56N, M102T
notes: Dual-Ig
B38: H183/L072 VL V51S (antibody, name in Kabat numbering, V domains shown)
VH: B1 VH
VL: B1 VL with V56S, M102T
notes: Dual-Ig
B39: H183/L072 VL V27cR (antibody, name in Kabat numbering, V domains shown)
VH: B1 VH
VL: B1 VL with V30R, M102T
notes: Dual-Ig
B40: H183/L072 VL V27cS (antibody, name in Kabat numbering, V domains shown)
VH: B1 VH
VL: B1 VL with V30S, M102T
notes: Dual-Ig
B41: H183/L072 VL T97P (antibody, name in Kabat numbering, V domains shown)
VH: B1 VH
VL: B1 VL with M102P
notes: Dual-Ig
B42: H183/L072 VL V51K (antibody, name in Kabat numbering, V domains shown)
VH: B1 VH
VL: B1 VL with V56K, M102T
notes: Dual-Ig
B43: H183/L072 VL V51Q (antibody, name in Kabat numbering, V domains shown)
VH: B1 VH
VL: B1 VL with V56Q, M102T
notes: Dual-Ig
B44: H183/L072 VL V27cK (antibody, name in Kabat numbering, V domains shown)
VH: B1 VH
VL: B1 VL with V30K, M102T
notes: Dual-Ig

Substitutions are numbered along the chain they refer to.

T1 sequence (chain, as listed by the source limits assumed): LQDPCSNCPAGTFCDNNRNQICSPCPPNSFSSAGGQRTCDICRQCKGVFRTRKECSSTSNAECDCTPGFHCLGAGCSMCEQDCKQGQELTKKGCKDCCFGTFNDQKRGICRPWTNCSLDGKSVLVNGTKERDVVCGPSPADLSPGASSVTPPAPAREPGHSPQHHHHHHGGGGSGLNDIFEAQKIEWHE

The assay concerns the target T1, Human CD137 ECD (human).
T1 construct: entry includes C-terminal His-tag and biotin acceptor peptide; also called human CD137 extracellular domain; 4-1BB
The assay can be described thus: Biacore SPR, vs parent H183/L072. (Surface plasmon resonance follows binding to a sensor surface in real time, without labels.)
For the molecule B1, the “fold change of affinity” value was found to be 1.1 fold.

As to B2, the “fold change of affinity” value was found to be 0.8 fold.

For B3, the “fold change of affinity” value worked out at 0 fold.

For the molecule B4, the “fold change of affinity” value is 1 fold.

As to B5, the “fold change of affinity” value came to 0.6 fold.

In the case of B6, the “fold change of affinity” value was found to be 0.5 fold.

In the case of B7, the “fold change of affinity” value was 0.7 fold.

In the case of B8, the “fold change of affinity” value stood at 0.6 fold.

For B9, the “fold change of affinity” value turned out to be 1.7 fold.

Take B10: the “fold change of affinity” value was determined as 0.4 fold.

Take B11: the “fold change of affinity” value was found to be 1.4 fold.

Take B12: the “fold change of affinity” value is 0.9 fold.

In the case of B13, the “fold change of affinity” value amounted to 0.8 fold.

On to B14, for which the “fold change of affinity” value came to 0.7 fold.

As to B15, the “fold change of affinity” value is 0.6 fold.

B16: the “fold change of affinity” value is 0.7 fold.

On to B17, for which the “fold change of affinity” value is 0.7 fold.

Take B18: the “fold change of affinity” value was 0.6 fold.

Consider B19, for which the “fold change of affinity” value was 0.7 fold.

With B20, the “fold change of affinity” value was 0.5 fold.

On to B21, for which the “fold change of affinity” value amounted to 1 fold.

For B22, the “fold change of affinity” value is 0.6 fold.

Take B23: the “fold change of affinity” value was determined as 0.1 fold.

On to B24, for which the “fold change of affinity” value was determined as 0.5 fold.

On to B25, for which the “fold change of affinity” value came to 0.3 fold.

In the case of B26, the “fold change of affinity” value came out at 0.9 fold.

For the molecule B27, the “fold change of affinity” value worked out at 1 fold.

As to B28, the “fold change of affinity” value was 0.5 fold.

B29: the “fold change of affinity” value came out at 0.4 fold.

Consider B30, for which the “fold change of affinity” value came to 0.8 fold.

Regarding B31, the “fold change of affinity” value was 0.6 fold.

On to B32, for which the “fold change of affinity” value stood at 0 fold.

On to B33, for which the “fold change of affinity” value worked out at 0.2 fold.

For the molecule B34, the “fold change of affinity” value is 0.1 fold.

As for B35, the “fold change of affinity” value is 0.8 fold.

As to B36, the “fold change of affinity” value amounted to 0.1 fold.

For the molecule B37, the “fold change of affinity” value worked out at 0.3 fold.

On to B38, for which the “fold change of affinity” value is 0.6 fold.

As to B39, the “fold change of affinity” value amounted to 0.9 fold.

As for B40, the “fold change of affinity” value turned out to be 0.3 fold.

With B41, the “fold change of affinity” value was 0 fold.

As to B42, the “fold change of affinity” value came out at 1.4 fold.

For the molecule B43, the “fold change of affinity” value is 0.8 fold.

B44: the “fold change of affinity” value was 0.9 fold.
